biological target: HLA-A*02:01 (Homo sapiens, UniProt P04439, D140Y/D185E/D98H/E176V/E277Q/G131W/G231S/I119V/I121R/I166T/I218V/L300P/L318F/N151K/N90K/P208A/P217A/Q86G/Q94H/R138H/R169H/T345S); assay: MHC binding assay (UV-ligand exchange, beta2m ELISA, peptide exchange yield); conditions: binding to HLA-A*02:01 ranged by peptide exchange yield, β2m ELISA
Excerpt: Candidate peptides for T cell based therapies according to the present invention were further tested for their MHC binding capacity (affinity). The individual peptide-MHC complexes were produced by UV-ligand exchange, where a UV-sensitive peptide is cleaved upon UV-irradiation, and exchanged with the peptide of interest as analyzed. Only peptide candidates that can effectively bind and stabilize the peptide-receptive MHC molecules prevent dissociation of the MHC complexes. To determine the yield of the exchange reaction, an ELISA was performed based on the detection of the light chain (β2m) of stabilized MHC complexes. The assay was performed as generally described in Rodenko et al. (Rodenko et al., 2006).
96 well MAXISorp plates (NUNC) were coated over night with 2 ug/ml streptavidin in PBS at room temperature, washed 4× and blocked for 1 h at 37° C. in 2% BSA containing blocking buffer. Refolded HLA-A*02:01/MLA-001 monomers served as standards, covering the range of 15-500 ng/ml. Peptide-MHC monomers of the UV-exchange reaction were diluted 100 fold in blocking buffer. Samples were incubated for 1 h at 37° C., washed four times, incubated with 2 ug/ml HRP conjugated anti-μ2m for 1h at 37° C., washed again and detected with TMB solution that is stopped with […]. Absorption was measured at 450 nm. Candidate peptides that show a high exchange yield (preferably higher than 50%, most preferred higher than 75%) are generally preferred for a generation and production of antibodies or fragments thereof, and/or T cell receptors or fragments thereof, as they show sufficient avidity to the MHC molecules and prevent dissociation of the MHC complexes.
MHC class I binding scores. Binding of HLA-class I restricted peptides to HLA-A*02:01 was ranged by peptide exchange yield: ≥10%=+; ≥20%=++; ≥50=+++; >75%=++++

Substance	Peptide exchange (MHC class I binding score)
117 (SVDGVIKEV; listed as Homo sapiens) [compound 117]	“+++” (≥50=+++)
118 (TLWYRPPEL; listed as Homo sapiens) [compound 118]	“+++” (≥50=+++)
119 (VLGDDPQLMKV; listed as Homo sapiens) [compound 119]	“+++” (≥50=+++)
121 (YLDEDTIYHL; listed as Homo sapiens) [compound 121]	“++” (≥20%=++)
122 (MQAPRAALVFA; listed as Homo sapiens) [compound 122]	“++++” (>75%=++++)
123 (KISTITPQI; listed as Homo sapiens) [compound 123]	“++” (≥20%=++)
124 (ALFEESGLIRI; listed as Homo sapiens) [compound 124]	“+++” (≥50=+++)
125 (ALLGKLDAINV; listed as Homo sapiens) [compound 125]	“+++” (≥50=+++)
126 (ALLSLDPAAV; listed as Homo sapiens) [compound 126]	“++++” (>75%=++++)
127 (ALSDLALHFL; listed as Homo sapiens) [compound 127]	“++++” (>75%=++++)
128 (ALYDVRTILL; listed as Homo sapiens) [compound 128]	“+++” (≥50=+++)
129 (ALYEKDNTYL; listed as Homo sapiens) [compound 129]	“+++” (≥50=+++)
130 (FLFGEEPSKL; listed as Homo sapiens) [compound 130]	“+++” (≥50=+++)
131 (FLIEEQKIVV; listed as Homo sapiens) [compound 131]	“+++” (≥50=+++)
132 (FLWAGGRASYGV; listed as Homo sapiens) [compound 132]	“+++” (≥50=+++)
133 (ILDDVSLTHL; listed as Homo sapiens) [compound 133]	“++” (≥20%=++)
134 (ILLAEGRLVNL; listed as Homo sapiens) [compound 134]	“+++” (≥50=+++)
135 (KLDDTYIKA; listed as Homo sapiens) [compound 135]	“+++” (≥50=+++)
136 (KLFPGFEIETV; listed as Homo sapiens) [compound 136]	“++++” (>75%=++++)
137 (KLGPEGELL; listed as Homo sapiens) [compound 137]	“+++” (≥50=+++)
138 (NIFPNPEATFV; listed as Homo sapiens) [compound 138]	“+++” (≥50=+++)
139 (SIDRNPPQL; listed as Homo sapiens) [compound 139]	“+++” (≥50=+++)

Substance	Peptide exchange (MHC class I binding score)
140 (SLLNPPETLNL; listed as Homo sapiens) [compound 140]	“+++” (≥50=+++)
141 (SLTEQVHSL; listed as Homo sapiens) [compound 141]	“+++” (≥50=+++)
142 (SLYGYLRGA; listed as Homo sapiens) [compound 142]	“+++” (≥50=+++)
144 (TAVALLRLL; listed as Homo sapiens) [compound 144]	“++” (≥20%=++)
145 (TTFPRPVTV; listed as Homo sapiens) [compound 145]	“+++” (≥50=+++)
146 (VLISGVVHEI; listed as Homo sapiens) [compound 146]	“+++” (≥50=+++)
147 (YAFPKAVSV; listed as Homo sapiens) [compound 147]	“++” (≥20%=++)
148 (YLHNQGIGV; listed as Homo sapiens) [compound 148]	“++” (≥20%=++)
149 (ILGTEDLIVEV; listed as Homo sapiens) [compound 149]	“+++” (≥50=+++)
150 (ALFQPHLINV; listed as Homo sapiens) [compound 150]	“++++” (>75%=++++)
151 (ALLDIIRSL; listed as Homo sapiens) [compound 151]	“++++” (>75%=++++)
152 (ALLEPEFILKA; listed as Homo sapiens) [compound 152]	“++++” (>75%=++++)
153 (ALPKEDPTAV; listed as Homo sapiens) [compound 153]	“+++” (≥50=+++)
154 (KVADLVLML; listed as Homo sapiens) [compound 154]	“+++” (≥50=+++)
155 (LLLDPDTAVLKL; listed as Homo sapiens) [compound 155]	“+++” (≥50=+++)
156 (LLLPPPPCPA; listed as Homo sapiens) [compound 156]	“+++” (≥50=+++)
157 (MLLEIPYMAA; listed as Homo sapiens) [compound 157]	“+++” (≥50=+++)
158 (SLIEKYFSV; listed as Homo sapiens) [compound 158]	“++++” (>75%=++++)
159 (SLLDLHTKV; listed as Homo sapiens) [compound 159]	“+++” (≥50=+++)
160 (VLLPDERTISL; listed as Homo sapiens) [compound 160]	“++++” (>75%=++++)
161 (YLPDIIKDQKA; listed as Homo sapiens) [compound 161]	“+++” (≥50=+++)
